Molecular target: T1, GST-β-catenin^4A (UniProt P35222 1-781, S33A | S37A | T41A | S45A)
T1 sequence: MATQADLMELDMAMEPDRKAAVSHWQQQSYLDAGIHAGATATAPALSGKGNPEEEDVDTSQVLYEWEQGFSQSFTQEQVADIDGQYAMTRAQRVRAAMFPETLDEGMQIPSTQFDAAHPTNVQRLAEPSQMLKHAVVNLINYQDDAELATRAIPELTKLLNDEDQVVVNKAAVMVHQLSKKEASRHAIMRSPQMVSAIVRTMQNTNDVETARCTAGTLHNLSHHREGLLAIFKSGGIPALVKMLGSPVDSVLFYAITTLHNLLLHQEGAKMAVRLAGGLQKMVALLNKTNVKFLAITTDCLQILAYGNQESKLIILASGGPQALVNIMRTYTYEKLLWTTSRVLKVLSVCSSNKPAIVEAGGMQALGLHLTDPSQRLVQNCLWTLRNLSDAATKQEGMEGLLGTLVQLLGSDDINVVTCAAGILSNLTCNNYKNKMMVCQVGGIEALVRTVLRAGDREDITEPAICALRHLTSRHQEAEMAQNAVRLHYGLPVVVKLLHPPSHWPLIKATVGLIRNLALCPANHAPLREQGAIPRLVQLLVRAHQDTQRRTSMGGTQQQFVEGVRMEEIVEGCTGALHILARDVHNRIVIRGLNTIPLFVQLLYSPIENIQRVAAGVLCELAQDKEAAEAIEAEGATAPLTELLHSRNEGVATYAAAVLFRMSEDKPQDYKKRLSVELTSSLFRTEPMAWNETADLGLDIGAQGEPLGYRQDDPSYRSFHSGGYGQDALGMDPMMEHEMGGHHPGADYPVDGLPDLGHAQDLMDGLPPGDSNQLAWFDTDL
Experiment: pull-down

B1: 6xHis-FLYWCH1 (natural protein)
chain: MPLPEPSEQEGESVKAGQEPSPKPGTDVIPAAPRKPREFSKLVLLTASDQDEDGVGSKPQEVHCVLSLEMAGPATLASTLQILPVEEQGGVVQPALEMPEQKCSKLDAAAPQSLEFLRTPFGGRLLVLESFLYKQEKAVGDKVYWKCRQHAELGCRGRAITRGLRATVMRGHCHAPDEQGLEARRQREKLPSLALPEGLGEPQGPEGPGGRVEEPLEGVGPWQCPEEPEPTPGLVLSKPALEEEEAPRALSLLSLPPKKRSILGLGQARPLEFLRTCYGGSFLVHESFLYKREKAVGDKVYWTCRDHALHGCRSRAITQGQRVTVMRGHCHQPDMEGLEARRQQEKAVETLQAGQDGPGSQVDTLLRGVDSLLYRRGPGPLTLTRPRPRKRAKVEDQELPTQPEAPDEHQDMDADPGGPEFLKTPLGGSFLVYESFLYRREKAAGEKVYWTCRDQARMGCRSRAITQGRRVTVMRGHCHPPDLGGLEALRQREKRPNTAQRGSPGGPEFLKTPLGGSFLVYESFLYRREKAAGEKVYWTCRDQARMGCRSRAITQGRRVMVMRRHCHPPDLGGLEALRQREHFPNLAQWDSPDPLRPLEFLRTSLGGRFLVHESFLYRKEKAAGEKVYWMCRDQARLGCRSRAITQGHRIMVMRSHCHQPDLAGLEALRQRERLPTTAQQEDPEKIQVQLCFKTCSPESQQIYGDIKDVRLDGESQ
  binding result: binds

Reference: article PMC6277001 (Molecular cancer research : MCR, 2018)
